According to the supplement of paper PMC11246515:
± gives the standard deviation of the averaged measurements.

Assay: total protein half-life in vivo (active degradation + dilution); higher = more stable protein
[1] = E. coli NCM3722 delta-clpP delta-lon delta-hslV, growth: N-lim chemostat, doubling time 6 h
[2] = E. coli NCM3722 delta-clpP, growth: N-lim chemostat, doubling time 6 h
[3] = E. coli NCM3722 delta-hslV, growth: N-lim chemostat, doubling time 6 h
[4] = E. coli NCM3722 delta-lon, growth: N-lim chemostat, doubling time 6 h
[5] = E. coli NCM3722 delta-smpB, growth: N-lim chemostat, doubling time 6 h
[6] = wild type E. coli NCM3722, growth: C-lim chemostat, doubling time 3 h
[7] = wild type E. coli NCM3722, growth: C-lim chemostat, doubling time 6 h
[8] = wild type E. coli NCM3722, growth: C-lim chemostat, doubling time 12 h
[9] = wild type E. coli NCM3722, growth: N-lim chemostat, doubling time 6 h
[10] = wild type E. coli NCM3722, growth: N-lim chemostat, doubling time 12 h
[11] = wild type E. coli NCM3722, growth: P-lim chemostat, doubling time 6 h
[12] = wild type E. coli NCM3722, growth: P-lim chemostat, doubling time 12 h

| Sequence | total protein half-life in vivo [1] | total protein half-life in vivo [2] | total protein half-life in vivo [3] | total protein half-life in vivo [4] | total protein half-life in vivo [5] | total protein half-life in vivo [6] | total protein half-life in vivo [7] | total protein half-life in vivo [8] | total protein half-life in vivo [9] | total protein half-life in vivo [10] | total protein half-life in vivo [11] | total protein half-life in vivo [12] |
| --- | --- | --- | --- | --- | --- | --- | --- | --- | --- | --- | --- | --- |
| MKGRWVKYLLMGTVVAMLAACSSKPTDRGQQYKDGKFTQPFSLVNQPDAVGAPINAGDFAEQINHIRNSSPRLYGNQSNVYNAVQEWLRAGGDTRNMRQFGIDAWQMEGADNYGNVQFTGYYTPVIQARHTRQGEFQYPIYRMPPKRGRLPSRAEIYAGALSDKYILAYSNSLMDNFIMDVQGSGYIDFGDGSPLNFFSYAGKNGHAYRSIGKVLIDRGEVKKEDMSMQAIRHWGETHSEAEVRELLEQNPSFVFFKPQSFAPVKGASAVPLVGRASVASDRSIIPPGTTLLAEVPLLDNNGKFNGQYELRLMVALDVGGAIKGQHFDIYQGIGPEAGHRAGWYNHYGRVWVLKTAPGAGNVFSG [P0A935] | 5.19 ± 1.9 h | 4.22 ± 0.17 h | 3.87 ± 0.69 h | 4.05 ± 0.22 h | 3 ± 0.41 h | 1.877 ± 0.013 h | 2.8 ± 0.13 h | 4.23 ± 0.38 h | 2.99 ± 0.4 h | 3.79 ± 0.35 h | 3.7 ± 0.37 h | 6.57 ± 0.27 h |
| MKHDHFVVQSPDKPAQQLLLLFHGVGDNPVAMGEIGNWFAPLFPDALVVSVGGAEPSGNPAGRQWFSVQGITEDNRQARVDAIMPTFIETVRYWQKQSGVGANATALIGFSQGAIMVLESIKAEPGLASRVIAFNGRYASLPETASTATTIHLIHGGEDPVIDLAHAVAAQEALISAGGDVTLDIVEDLGHAIDNRSMQFALDHLRYTIPKHYFDEALSGGKPGDDDVIEMM | 4.732 ± 0.016 h |  | 2.76 ± 0.035 h | 3.46 ± 0.23 h | 2.67 ± 0.22 h | 3.16 ± 0.45 h | 6.03 ± 2.2 h | 5.97 ± 1.4 h | 2.93 ± 0.19 h | 3.93 ± 0.66 h | 4.46 ± 0.27 h | 6.94 ± 0.16 h |
| MKHGIKALLITLSLACAGMSHSALAAASVAKPTAVETKAEAPAAQSKAAVPAKASDEEGTRVSINNASAEELARAMNGVGLKKAQAIVSYREEYGPFKTVEDLKQVPGMGNSLVERNLAVLTL [P0AAR8] |  |  |  |  |  |  |  | 3.36 h |  |  |  |  |
| MKHTVEVMIPEAEIKARIAELGRQITERYKDSGSDMVLVGLLRGSFMFMADLCREVQVSHEVDFMTASSYGSGMSTTRDVKILKDLDEDIRGKDVLIVEDIIDSGNTLSKVREILSLREPKSLAICTLLDKPSRREVNVPVEFIGFSIPDEFVVGYGIDYAQRYRHLPYIGKVILLDE [P0A9M2] | 4.48 ± 0.22 h | 4.53 ± 0.57 h | 4.14 ± 0.16 h | 5.16 ± 0.72 h | 4.08 ± 0.22 h | 2.88 ± 0.16 h | 4.78 ± 1.6 h | 9.38 ± 0.47 h | 4.126 ± 0.012 h | 7.29 ± 0.7 h | 5.5 ± 0.17 h | 12.9 ± 1.8 h |
| MKIAFIGEAVSGFGGMETVIRDVITTFRQQHIQSEMFFFCRNDKMDKGWLEGIKYSCSFSNIRLGFLRRAKHIHALSKWLQEYQPDIVICIDVISCLFAAKARKKSGIDMPVFSWPHFSLDHKKHAEYITCADYHLAISSGIKQQMINRGVAESTINVIFNPVETKDSVIPAPEEGETATFIYVGRMKFEGQKRVKDLLDGLSQAKGNWKLHVLGDGSDFEKCQAYGRELNIDDRIVWYGWQQYPWELVQQDIEKVSALLLTSSFEGFPMTLLEALSWGIPCISADCVSGPADIIQPDVNGHLYQPGDIAGFVTLLNKYIAGEIHIEHEKIPASIDEFYQSKYYDRLHKVIISAISRRK | 5.73 ± 0.45 h |  |  | 6.05 ± 0.67 h | 5.9 ± 0.06 h | 2.96 ± 0.11 h |  | 10.9 ± 0.65 h | 6.03 ± 1.8 h | 12.1 ± 1.4 h | 6.21 ± 0.58 h | 11.8 ± 0.7 h |
| MKIAILSRDGTLYSCKRLREAAIQRGHLVEILDPLSCYMNINPAASSIHYKGRKLPHFDAVIPRIGTAITFYGTAALRQFEMLGSYPLNESVAIARARDKLRSMQLLARQGIDLPVTGIAHSPDDTSDLIDMVGGAPLVVKLVEGTQGIGVVLAETRQAAESVIDAFRGLNAHILVQEYIKEAQGCDIRCLVVGDEVVAAIERRAKEGDFRSNLHRGGAASVASITPQEREIAIKAARTMALDVAGVDILRANRGPLVMEVNASPGLEGIEKTTGIDIAGKMIRWIERHATTEYCLKTGG [P0C0U4] |  | 4.13 ± 0.23 h | 3.76 ± 0.12 h | 4.31 ± 0.27 h | 3.78 ± 0.36 h | 2.85 ± 0.062 h | 5.3 ± 0.24 h | 10.9 ± 0.29 h | 3.77 ± 0.19 h | 6.029 ± 0.023 h | 5.56 ± 0.65 h |  |
| MKICLIDETGTGDGALSVLAARWGLEHDEDNLMALVLTPEHLELRKRDEPKLGGIFVDFVGGAMAHRRKFGGGRGEAVAKAVGIKGDYLPDVVDATAGLGRDAFVLASVGCRVRMLERNPVVAALLDDGLARGYADAEIGGWLQERLQLIHASSLTALTDITPRPQVVYLDPMFPHKQKSALVKKEMRVFQSLVGPDLDADGLLEPARLLATKRVVVKRPDYAPPLANVATPNAVVTKGHRFDIYAGTPV | 6.34 ± 1.2 h | 5.05 ± 0.67 h | 5.29 h | 5.92 ± 0.037 h | 5.27 ± 0.32 h |  |  | 11.1 ± 1 h | 5.3 ± 0.28 h | 11.5 ± 1.8 h |  | 12.9 ± 0.86 h |
| MKIFLENLYHSDCYFLPIRDNQQVLVGVELITHFSSEDGTVRIPTSRVIAQLTEEQHWQLFSEQLELLKSCQHFFIQHKLFAWLNLTPQVATLLLERDNYAGELLKYPFIELLINENYPHLNEGKDNRGLLSLSQVYPLVLGNLGAGNSTMKAVFDGLFTRVMLDKSFIQQQITHRSFEPFIRAIQAQISPCCNCIIAGGIDTAEILAQITPFDFHALQGCLWPAVPINQITTLVQR | 4.97 ± 0.65 h | 4.111 ± 0.0084 h | 3.897 ± 0.0064 h | 4.44 ± 0.36 h | 3.866 ± 0.031 h | 2.99 ± 0.1 h | 6.47 ± 1.4 h | 9.89 h | 4.22 ± 0.84 h | 7.69 ± 1.8 h | 5.87 ± 0.37 h | 11.5 ± 0.35 h |
